The values that follow come from doi:10.1101/2023.09.18.557803, “Structure of the portal complex from Staphylococcus aureus pathogenicity island 1 transducing particles in situ and in solution” (bioRxiv, 2023).

Data set [1] addresses bacteriophage 80α portal protein (gp42) in situ in SaPI1 virions (Staphylococcus aureus bacteriophage 80α). Kind of data set: cryo-EM structure; focused reconstruction with C12 symmetry of the portal complex in situ in purified full and empty SaPI1 virions (assembled in S. aureus), after signal subtraction of the capsid; 3.2 Å (full) and 3.5 Å (empty).
Data set [2] concerns the target bacteriophage 80α portal protein (gp42), expressed in E. coli with a C-terminal hexahistidine tag (Staphylococcus aureus bacteriophage 80α). Put plainly: cryo-EM structure; portals expressed in E. coli, in solution (25 mM HEPES pH 7.4, 0.1 M NaCl); 2D classification and C13 reconstruction in RELION-3, 2.4 Å.
Data set [3] concerns the molecule itself. Put plainly: cryo-EM structure; icosahedral reconstruction of full and empty capsids of purified SaPI1 virions (assembled in S. aureus); 3.1 Å (full, used to model CP) and 3.2 Å (empty).

Regarding “bacteriophage 80α portal protein (gp42) in situ in SaPI1 virions (natural protein)”, the stoichiometry N in data set [1] was found to be 12.

In data set [2], “bacteriophage 80α portal protein (gp42), expressed in E. coli with a C-terminal hexahistidine tag (natural protein)” yielded a stoichiometry N of 13.

B1: bacteriophage 80α capsid protein (gp47) in mature SaPI1 capsids (natural protein, Staphylococcus aureus bacteriophage 80α, UniProt A4ZFB3 15-324, looked up)
chain: ASNNVKPQVFNPDNVMMHEKKDGTLMNEFTTPILQEVMENSKIMQLGKYEPMEGTEKKFTFWADKPGAYWVGEGQKIETSKATWVNATMRAFKLGVILPVTKEFLNYTYSQFFEEMKPMIAEAFYKKFDEAGILNQGNNPFGKSIAQSIEKTNKVIKGDFTQDNIIDLEALLEDDELEANAFISKTQNRSLLRKIVDPETKERIYDRNSDSLDGLPVVNLKSSNLKRGELITGDFDKLIYGIPQLIEYKIDETAQLSTVKNEDGTPVNLFEQDMVALRATMHVALHIADDKAFAKLVPADKRTDSVPGEV
notes: capsid protein gp47 of Staphylococcus aureus bacteriophage 80α, cut product: the first 14 residues are removed by the Prp protease; domains printed as N-arm 15-67, E-loop 68-104, P-domain 105-167 and 248-307, A-domain 168-247 and 308-324; residues 16-313 modelled; 240 copies in the icosahedral T=4 capsid; in the real virion five subunits at one vertex are replaced by the portal; also called CP; …
Regarding B1, the “stoichiometry N” value in data set [3] worked out at 240.
